Reference: paper PMC11995187, “Specificity landscapes of 40 R2R3‐MYBs reveal how paralogs target different cis‐elements by homodimeric binding”

T1: AtMYB2 homodimer (Arabidopsis thaliana, UniProt Q39028 1-273)
T1 sequence: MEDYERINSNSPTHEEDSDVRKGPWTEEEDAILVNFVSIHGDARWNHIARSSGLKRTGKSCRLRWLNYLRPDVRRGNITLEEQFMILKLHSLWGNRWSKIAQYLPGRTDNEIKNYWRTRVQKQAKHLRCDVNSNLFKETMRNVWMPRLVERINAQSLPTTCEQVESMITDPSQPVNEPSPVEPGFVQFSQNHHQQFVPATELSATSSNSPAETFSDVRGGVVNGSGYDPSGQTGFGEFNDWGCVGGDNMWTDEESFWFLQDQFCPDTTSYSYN

T2: AtMYB2 (Arabidopsis thaliana, UniProt Q39028 1-273)
T2 sequence: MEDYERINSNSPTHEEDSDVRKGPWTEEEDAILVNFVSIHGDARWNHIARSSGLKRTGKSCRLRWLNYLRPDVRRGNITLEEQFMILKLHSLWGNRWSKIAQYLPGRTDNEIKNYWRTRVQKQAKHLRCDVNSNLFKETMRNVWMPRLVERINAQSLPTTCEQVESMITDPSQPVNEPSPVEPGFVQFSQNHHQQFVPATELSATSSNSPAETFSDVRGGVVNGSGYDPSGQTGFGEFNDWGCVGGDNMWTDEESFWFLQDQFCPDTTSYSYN


Experiments:
[1] = biological target: T1, AtMYB2 homodimer; assay: EMSA; 18-48 ng/uL protein; monomer band also seen, dimer band at 36 and 48 ng/uL; EMSA: 10 mM Tris pH 7.5, 50 mM KCl, 10 ng DNA in 20 uL, 25 C, 1 h; 6% native PAGE, 0.5x TBE, 4 C; settings: protein: recombinant; tags: His; chain copies: 2; label: none (gel stain); (annealed oligonucleotides)
[2] = biological target: T2, AtMYB2; assay: EMSA; 24-48 ng/uL protein; single-molecule shift only, no dimer band; EMSA: 10 mM Tris pH 7.5, 50 mM KCl, 10 ng DNA in 20 uL, 25 C, 1 h; 6% native PAGE, 0.5x TBE, 4 C; settings: protein: recombinant; tags: His; label: none (gel stain); (annealed oligonucleotides)

Binder | binding result [1] | binding result [2]
ER8 (dsDNA) DNA 1: GATCCAATTGGTTAGGTCGATCTCAACCTAACATCAATGCCA DNA 2: TGGCATTGATGTTAGGTTGAGATCGACCTAACCAATTGGATC | binds | –
ER1a (dsDNA) DNA 1: GATCCAATTGGTTTGGTCACCGATTTAACCTCATCAATGCCA DNA 2: TGGCATTGATGAGGTTAAATCGGTGACCAAACCAATTGGATC | binds | –
Ma (dsDNA) DNA 1: GATCCAATTGACCACTACGTTAGGTAATGGACATCAATGCCA DNA 2: TGGCATTGATGTCCATTACCTAACGTAGTGGTCAATTGGATC | – | binds
